Measurements from publication PMC5467530.

Substrate: O=c1[nH]cnc2c([C@@H]3O[C@H](COP(=O)(O)O)[C@@H](O)[C@H]3O)n[nH]c12
Assay: pyruvate kinase / lactate dehydrogenase coupled assay, NADH oxidation by UV
Format: biochemical, Streptomyces kaniharaensis
Settings: 2.5 mM L-aspartate, 0.125 mM GTP

B1: ForA (Streptomyces kaniharaensis) (protein)
chain: MLKAIVGLNWGDEGKGRMVDNLSAEADYTVRYHGGSNAGHTIHTDQGKFKLHSLPSSVLHPTVTGVLGPGMTVDVEGFLAEFEALREHGVTADRLLVADAASVCFPFHRDLDGAEEERLSDGRYGSTRRGISPAYGDRVMKKTLLVRELFDRENLPARLAAVLDWANERIVRIYGGAPLSLDEVTRWAADVAARLEPHVVDATALLGKALDDGATVIAEGQLGALKDLYYGIYPFTTSSTCLAGHAPVGIGVPWARVDRTIGVTKAFSSCVGAGPFVTEFDEERADRLRRQWGEYGSTTNRPRRLGAFDAVATRYGVRVQGADEVAITNLDQLSGTGELDLCVAYERAGRTVREFSPRPAELAASTPVHETLSGWDEDISGVRTYEQLPAGAREYVEAIQELLGVPVRHVSVGSHRDALIEIK
  Km: 74 ± 25 µM
  kcat: 0.3 ± 0.033 s⁻¹
